Square brackets hold non-standard residues; d marks the D form. Phe(4-F) = N[C@@H](Cc1ccc(F)cc1)C(=O)O; 1Nal = N[C@@H](Cc1cccc2ccccc12)C(=O)O; Cha = N[C@@H](CC1CCCCC1)C(=O)O; Cit = NC(=O)NCCC[C@H](N)C(=O)O; Nle = CCCC[C@H](N)C(=O)O; Nva = CCC[C@H](N)C(=O)O; Abu = CC[C@H](N)C(=O)O

B1: H-His-Ala-Lys-Arg-Arg-Cha-Ile-Phe-NH2 (peptide)
peptide: H-HAKRR[Cha]IF-NH2
SMILES: CC[C@H](C)[C@H](NC(=O)[C@H](CC1CCCCC1)NC(=O)[C@H](CCCNC(=N)N)NC(=O)[C@H](CCCNC(=N)N)NC(=O)[C@H](CCCCN)NC(=O)[C@H](C)NC(=O)[C@@H](N)Cc1c[nH]cn1)C(=O)N[C@@H](Cc1ccccc1)C(N)=O
B2: H-His-Ala-Lys-Arg-Arg-1Nap-Ile-Phe-NH2 (peptide)
peptide: H-HAKRR[1Nal]IF-NH2
SMILES: CC[C@H](C)[C@H](NC(=O)[C@H](Cc1cccc2ccccc12)NC(=O)[C@H](CCCNC(=N)N)NC(=O)[C@H](CCCNC(=N)N)NC(=O)[C@H](CCCCN)NC(=O)[C@H](C)NC(=O)[C@@H](N)Cc1c[nH]cn1)C(=O)N[C@@H](Cc1ccccc1)C(N)=O
B3: H-His-Ala-Lys-Arg-Arg-Nle-Ile-Phe-NH2 (peptide)
peptide: H-HAKRR[Nle]IF-NH2
SMILES: CCCC[C@H](NC(=O)[C@H](CCCNC(=N)N)NC(=O)[C@H](CCCNC(=N)N)NC(=O)[C@H](CCCCN)NC(=O)[C@H](C)NC(=O)[C@@H](N)Cc1c[nH]cn1)C(=O)N[C@H](C(=O)N[C@@H](Cc1ccccc1)C(N)=O)[C@@H](C)CC
B4: H-His-Ala-Lys-Arg-Arg-Nva-Ile-Phe-NH2 (peptide)
peptide: H-HAKRR[Nva]IF-NH2
SMILES: CCC[C@H](NC(=O)[C@H](CCCNC(=N)N)NC(=O)[C@H](CCCNC(=N)N)NC(=O)[C@H](CCCCN)NC(=O)[C@H](C)NC(=O)[C@@H](N)Cc1c[nH]cn1)C(=O)N[C@H](C(=O)N[C@@H](Cc1ccccc1)C(N)=O)[C@@H](C)CC
B5: H-Ala-Ala-Lys-Arg-Arg-Leu-Ile-pFPhe-NH2 (peptide)
peptide: H-AAKRRLI[Phe(4-F)]-NH2
SMILES: CC[C@H](C)[C@H](NC(=O)[C@H](CC(C)C)NC(=O)[C@H](CCCNC(=N)N)NC(=O)[C@H](CCCNC(=N)N)NC(=O)[C@H](CCCCN)NC(=O)[C@H](C)NC(=O)[C@H](C)N)C(=O)N[C@@H](Cc1ccc(F)cc1)C(N)=O
B6: H-Ala-Ala-Lys-Arg-Cit-Leu-Ile-pFPhe-NH2 (peptide)
peptide: H-AAKR[Cit]LI[Phe(4-F)]-NH2
SMILES: CC[C@H](C)[C@H](NC(=O)[C@H](CC(C)C)NC(=O)[C@H](CCCNC(N)=O)NC(=O)[C@H](CCCNC(=N)N)NC(=O)[C@H](CCCCN)NC(=O)[C@H](C)NC(=O)[C@H](C)N)C(=O)N[C@@H](Cc1ccc(F)cc1)C(N)=O
B7: H-Ala-Ala-Lys-Gln-Arg-Leu-Ile-pFPhe-NH2 (peptide)
peptide: H-AAKQRLI[Phe(4-F)]-NH2
SMILES: CC[C@H](C)[C@H](NC(=O)[C@H](CC(C)C)NC(=O)[C@H](CCCNC(=N)N)NC(=O)[C@H](CCC(N)=O)NC(=O)[C@H](CCCCN)NC(=O)[C@H](C)NC(=O)[C@H](C)N)C(=O)N[C@@H](Cc1ccc(F)cc1)C(N)=O
B8: H-Ala-Ala-Abu-Arg-Ser-Leu-Ile-pFPhe-NH2 (peptide)
peptide: H-AA[Abu]RSLI[Phe(4-F)]-NH2
SMILES: CC[C@H](NC(=O)[C@H](C)NC(=O)[C@H](C)N)C(=O)N[C@@H](CCCNC(=N)N)C(=O)N[C@@H](CO)C(=O)N[C@@H](CC(C)C)C(=O)N[C@H](C(=O)N[C@@H](Cc1ccc(F)cc1)C(N)=O)[C@@H](C)CC
B9: H-Ala-Ala-Lys-Arg-Arg-Leu-Ala-pFPhe-NH2 (peptide)
peptide: H-AAKRRLA[Phe(4-F)]-NH2
SMILES: CC(C)C[C@H](NC(=O)[C@H](CCCNC(=N)N)NC(=O)[C@H](CCCNC(=N)N)NC(=O)[C@H](CCCCN)NC(=O)[C@H](C)NC(=O)[C@H](C)N)C(=O)N[C@@H](C)C(=O)N[C@@H](Cc1ccc(F)cc1)C(N)=O
B10: H-Ala-Ala-Abu-Arg-Arg-Leu-Ile-pFPhe-NH2 (peptide)
peptide: H-AA[Abu]RRLI[Phe(4-F)]-NH2
SMILES: CC[C@H](NC(=O)[C@H](C)NC(=O)[C@H](C)N)C(=O)N[C@@H](CCCNC(=N)N)C(=O)N[C@@H](CCCNC(=N)N)C(=O)N[C@@H](CC(C)C)C(=O)N[C@H](C(=O)N[C@@H](Cc1ccc(F)cc1)C(N)=O)[C@@H](C)CC

In one test the target is CDK2/cyclin A complex (UniProt P24941 1-298; P20248 1-432). Description: cell-based or functional assay.
As for XAKRRLIF (Dab (diaminobutyric acid) at position 1; C-terminal amide) [H-Dab-Ala-Lys-Arg-Arg-Leu-Ile Phe-NH2], the “Relative activity, CDK2/cyclin A kinase inhibition (pRb substrate)” value was 5 relative to HAKRRLIF-NH2. Still for that read-out and setting: the same measure for XAKRRLIF (Pya (3-pyridylalanine) at position 1; C-terminal amide) [H-Pya-Ala-Lys-Arg-Arg-Leu-Ile Phe-NH2]: < 0.1 relative to HAKRRLIF-NH2. The same measure, in the same setting: then H-AAKRRLIF-NH2 [H-Ala-Ala-Lys-Arg-Arg-Leu-Ile Phe-NH2], with 1.8 relative to HAKRRLIF-NH2; and XAKRRLIF (Thi (2-thienylalanine) at position 1; C-terminal amide) [H-Thi-Ala-Lys-Arg-Arg-Leu-Ile Phe-NH2], with 2 relative to HAKRRLIF-NH2; and XAKRRLIF (Hse (homoserine) at position 1; C-terminal amide) [H-Hse-Ala-Lys-Arg-Arg-Leu-Ile Phe-NH2], with 2 relative to HAKRRLIF-NH2.

Take H-FAKRRLIF-NH2 [H-Phe-Ala-Lys-Arg-Arg-Leu-Ile Phe-NH2]: the “Relative activity, CDK2/cyclin A kinase inhibition (pRb substrate)” value was 3 relative to HAKRRLIF-NH2.

Another test deals with T1, CDK2/cyclin A (UniProt P24941 1-298; P20248 1-432). Description: cell-based or functional assay.
Regarding H-HAKRNLIF-NH2 [H-His-Ala-Lys-Arg-Asn-Leu-Ile-Phe-NH2], the “Relative activity, Kinase Inhibition (CDK2/cyclin A kinase assay, pRb substrate, [ATP] = 100 µM)” value is < 0.1 relative to H-His-Ala-Lys-Arg-Arg-Leu-Ile-Phe-NH2 (=1). In the case of H-HAKRPLIF-NH2 [H-His-Ala-Lys-Arg-Pro-Leu-Ile-Phe-NH2], the “Relative activity, Kinase Inhibition (CDK2/cyclin A kinase assay, pRb substrate, [ATP] = 100 µM)” value is < 0.1 relative to H-His-Ala-Lys-Arg-Arg-Leu-Ile-Phe-NH2 (=1). On the same count and under the same terms, the same measure for H-HAKRALIF-NH2 [H-His-Ala-Lys-Arg-Ala-Leu-Ile-Phe-NH2]: < 0.1 relative to H-His-Ala-Lys-Arg-Arg-Leu-Ile-Phe-NH2 (=1); for H-HAKRSLIF-NH2 [H-His-Ala-Lys-Arg-Ser-Leu-Ile-Phe-NH2]: 0.7 relative to H-His-Ala-Lys-Arg-Arg-Leu-Ile-Phe-NH2 (=1).

A further test deals with T1, CDK2/cyclin A. In words: cell-based or functional assay. This is another data set of the same source.
For the molecule B1, the “Relative activity, Kinase Inhibition (CDK2/cyclin A kinase assay, pRb substrate, [ATP] = 100 µM)” value was < 0.1 relative to H-His-Ala-Lys-Arg-Arg-Leu-Ile-Phe-NH2 (=1). The same measure, in the same setting: the same measure for H-HAKRRIIF-NH2 [H-His-Ala-Lys-Arg-Arg-Ile-Ile-Phe-NH2]: 1.5 relative to H-His-Ala-Lys-Arg-Arg-Leu-Ile-Phe-NH2 (=1); for B2: < 0.1 relative to H-His-Ala-Lys-Arg-Arg-Leu-Ile-Phe-NH2 (=1); for H-HAKRRVIF-NH2 [H-His-Ala-Lys-Arg-Arg-Val-Ile-Phe-NH2]: < 0.1 relative to H-His-Ala-Lys-Arg-Arg-Leu-Ile-Phe-NH2 (=1). As for B3, the “Relative activity, Kinase Inhibition (CDK2/cyclin A kinase assay, pRb substrate, [ATP] = 100 µM)” value was < 0.1 relative to H-His-Ala-Lys-Arg-Arg-Leu-Ile-Phe-NH2 (=1). Same read-out and setting: then B4, with < 0.1 relative to H-His-Ala-Lys-Arg-Arg-Leu-Ile-Phe-NH2 (=1). The same measure, in the same setting: the same measure for H-HAKRRFIF-NH2 [H-His-Ala-Lys-Arg-Arg-Phe-Ile-Phe-NH2]: < 0.1 relative to H-His-Ala-Lys-Arg-Arg-Leu-Ile-Phe-NH2 (=1).

In a further test the target is T1, CDK2/cyclin A. Description: cell-based or functional assay. This is another data set of the same source.
For the molecule B5, the “Relative activity, Kinase Inhibition (CDK2/cyclin A kinase assay, pRb substrate, [ATP] = 100 µM)” value was 80 relative to H-His-Ala-Lys-Arg-Arg-Leu-Ile-Phe-NH2 (=1). On to AKRRLIX (pFPhe (p-fluorophenylalanine) at position 7; C-terminal amide (-NH2)) [H-Ala-Lys-Arg-Arg-Leu-Ile-pFPhe-NH2], for which the “Relative activity, Kinase Inhibition (CDK2/cyclin A kinase assay, pRb substrate, [ATP] = 100 µM)” value was 4 relative to H-His-Ala-Lys-Arg-Arg-Leu-Ile-Phe-NH2 (=1). Same read-out and setting: the same measure for B6: 10 relative to H-His-Ala-Lys-Arg-Arg-Leu-Ile-Phe-NH2 (=1); for B7: 4 relative to H-His-Ala-Lys-Arg-Arg-Leu-Ile-Phe-NH2 (=1).

With B8, the “Relative activity, Kinase Inhibition (CDK2/cyclin A kinase assay, pRb substrate, [ATP] = 100 µM)” value was 14 relative to H-His-Ala-Lys-Arg-Arg-Leu-Ile-Phe-NH2 (=1).

As to B9, the “Relative activity, Kinase Inhibition (CDK2/cyclin A kinase assay, pRb substrate, [ATP] = 100 µM)” value was 20 relative to H-His-Ala-Lys-Arg-Arg-Leu-Ile-Phe-NH2 (=1). B10: the “Relative activity, Kinase Inhibition (CDK2/cyclin A kinase assay, pRb substrate, [ATP] = 100 µM)” value is 60 relative to H-His-Ala-Lys-Arg-Arg-Leu-Ile-Phe-NH2 (=1).

For the origin of these results see US20040176301A1 (CYCLACEL, published 2004).
